Source: PMC9352680, “A comprehensive thermodynamic model for RNA binding by the Saccharomyces cerevisiae Pumilio protein PUF4”

Each binder was assayed against T1, PUF4 RNA-binding domain (Saccharomyces cerevisiae, UniProt P25339 537-888) (assay: Mg; RNA-MaP; 20 mM Na-HEPES pH 7.4, 30 mM KOAc, 0.75 mM MgCl2, 0.1% Tween-20, 5% glycerol, 0.1 mg/mL BSA, 2 mM DTT; 25 C; 0.0125-409.6 nM protein). Settings: tags: N-His6-TEV cleaved; C-SNAP kept, Cy3B-labelled; label: tethered on chip by stalled RNA polymerase.
T1 sequence: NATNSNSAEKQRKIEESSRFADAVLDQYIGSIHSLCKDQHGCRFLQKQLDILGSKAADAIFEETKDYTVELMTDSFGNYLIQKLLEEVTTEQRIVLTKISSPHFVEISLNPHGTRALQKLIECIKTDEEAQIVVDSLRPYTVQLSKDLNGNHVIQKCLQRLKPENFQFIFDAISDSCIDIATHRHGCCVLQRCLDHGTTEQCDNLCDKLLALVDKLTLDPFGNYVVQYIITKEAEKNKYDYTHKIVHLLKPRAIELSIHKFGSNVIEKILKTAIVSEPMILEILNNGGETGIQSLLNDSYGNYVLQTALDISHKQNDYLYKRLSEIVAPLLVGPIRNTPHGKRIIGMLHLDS
With UCUCUUUGUAUUUCUCUCUU (ssRNA) [Ic_S1_P3E.1_K3.1_C3.1_H3.1_A3.1_[A6T]_F3.1_[A8C]_T3.1] the Kd was 0.111 µM.
For UCUCUUUGUAGCCCUUUCUCUU (ssRNA) [Ic_S1_P5E.1_K5.1_C5.1_H5.1_A5.1_[T5G]_[T6C]_[A7C]_F5.1_[T8C]_[A10T]_T5.1], the Kd was > 2.3 µM.
UCUCUUUGUAGCUUUUUCUCUU (ssRNA) [Ic_S1_P5E.1_K5.1_C5.1_H5.1_A5.1_[T5G]_[T6C]_[A7T]_F5.1_[A10T]_T5.1] was tested, and the Kd was 0.516 µM.
For UCUCUUUGUAGCAUUGUCUCUU (ssRNA) [Ic_S1_P5E.1_K5.1_C5.1_H5.1_A5.1_[T5G]_[T6C]_F5.1_[A10G]_T5.1], the Kd was 0.771 µM.
Binder UCUCUUUGUAUCUCCGUCUCUU (ssRNA) [Ic_S1_P5E.1_K5.1_C5.1_H5.1_A5.1_[T6C]_[A7T]_F5.1_[T8C]_[T9C]_[A10G]_T5.1] has a Kd of 0.484 µM.
UCUCUUUGUAUGCCGGUCUCUU (ssRNA) [Ic_S1_P5E.1_K5.1_C5.1_H5.1_A5.1_[T6G]_[A7C]_F5.1_[T8C]_[T9G]_[A10G]_T5.1] was tested, and the Kd was > 2.3 µM.
Binder UCUCUUUGUAACCUAUUCUCUU (ssRNA) [Ic_S1_P5E.1_K5.1_C5.1_H5.1_A5.1_[T5A]_[T6C]_[A7C]_F5.1_[T9A]_[A10T]_T5.1] has a Kd of 0.0128 µM.
UCUCUUUGUAACAUGCUCUCUU (ssRNA) [Ic_S1_P5E.1_K5.1_C5.1_H5.1_A5.1_[T5A]_[T6C]_F5.1_[T9G]_[A10C]_T5.1] showed a Kd of 0.0132 µM.
For UCUCUUUGUAAUCGACUCUCUU (ssRNA) [Ic_S1_P5E.1_K5.1_C5.1_H5.1_A5.1_[T5A]_[A7C]_F5.1_[T8G]_[T9A]_[A10C]_T5.1], the Kd was 1.54 µM.
UCUCUUUGUACUGGCUUCUCUU (ssRNA) [Ic_S1_P5E.1_K5.1_C5.1_H5.1_A5.1_[T5C]_[A7G]_F5.1_[T8G]_[T9C]_[A10T]_T5.1] showed a Kd of 0.991 µM.
With UCUCUUUGUAUAUGAUUCUCUU (ssRNA) [Ic_S1_P5E.1_K5.1_C5.1_H5.1_A5.1_[T6A]_[A7T]_F5.1_[T8G]_[T9A]_[A10T]_T5.1] the Kd was 0.0121 µM.
With UCUCUUUGUAGCCCUAUCUCUU (ssRNA) [Ic_S1_P5E.1_K5.1_C5.1_H5.1_A5.1_[T5G]_[T6C]_[A7C]_F5.1_[T8C]_T5.1] the Kd was 0.113 µM.
Work on UCUCUUUGUAUACCGAUCUCUU (ssRNA) [Ic_S1_P5E.1_K5.1_C5.1_H5.1_A5.1_[T6A]_[A7C]_F5.1_[T8C]_[T9G]_T5.1] yielded a Kd of 0.45 µM.
UCUCUUUGUAUGUCUCUCUU (ssRNA) [Ic_S1_P3E.1_K3.1_C3.1_H3.1_A3.1_[A6G]_F3.1_[A8C]_T3.1] gave a Kd of 0.677 µM.
In the case of UCUCUUUGUACUACACUCUCUU (ssRNA) [Ic_S1_P5E.1_K5.1_C5.1_H5.1_A5.1_[T5C]_F5.1_[T8C]_[T9A]_[A10C]_T5.1], the Kd is reported as 0.455 µM.
UCUCUUUGUACAGCCCUCUCUU (ssRNA) [Ic_S1_P5E.1_K5.1_C5.1_H5.1_A5.1_[T5C]_[T6A]_[A7G]_F5.1_[T8C]_[T9C]_[A10C]_T5.1] gave a Kd of 0.142 µM.
Binder UCUCUUUGUAUCAGUGUCUCUU (ssRNA) [Ic_S1_P5E.1_K5.1_C5.1_H5.1_A5.1_[T6C]_F5.1_[T8G]_[A10G]_T5.1] has a Kd of 0.441 µM.
For UCUCUUUGUACAUGUGUCUCUU (ssRNA) [Ic_S1_P5E.1_K5.1_C5.1_H5.1_A5.1_[T5C]_[T6A]_[A7T]_F5.1_[T8G]_[A10G]_T5.1], the Kd was 0.0272 µM.
For UCUCUUUGUAAAUAAUUCUCUU (ssRNA) [Ic_S1_P5E.1_K5.1_C5.1_H5.1_A5.1_[T5A]_[T6A]_[A7T]_F5.1_[T8A]_[T9A]_[A10T]_T5.1], the Kd was 0.0305 µM.
UCUCUUUGUAGCCUAUUCUCUU (ssRNA) [Ic_S1_P5E.1_K5.1_C5.1_H5.1_A5.1_[T5G]_[T6C]_[A7C]_F5.1_[T9A]_[A10T]_T5.1] gave a Kd of 0.0171 µM.
UCUCUUUGUAUAUGAUCUCUU (ssRNA) [Ic_S1_P4E.1_K4.1_C4.1_H4.1_A4.1_F4.1_[T8G]_T4.1] showed a Kd of 0.0154 µM.
With UCUCUUUGUAUAAGCCUCUCUU (ssRNA) [Ic_S1_P5E.1_K5.1_C5.1_H5.1_A5.1_[T6A]_F5.1_[T8G]_[T9C]_[A10C]_T5.1] the Kd was 0.794 µM.
UCUCUUUGUACUCCACUCUCUU (ssRNA) [Ic_S1_P5E.1_K5.1_C5.1_H5.1_A5.1_[T5C]_[A7C]_F5.1_[T8C]_[T9A]_[A10C]_T5.1] was tested, and the Kd was 0.5 µM.
In the case of UCUCUUUGUACUAUACUCUCUU (ssRNA) [Ic_S1_P5E.1_K5.1_C5.1_H5.1_A5.1_[T5C]_F5.1_[T9A]_[A10C]_T5.1], the Kd is reported as 0.00218 µM.
Binder UCUCUUUGUAUCAAUUUCUCUU (ssRNA) [Ic_S1_P5E.1_K5.1_C5.1_H5.1_A5.1_[T6C]_F5.1_[T8A]_[A10T]_T5.1] has a Kd of 0.0852 µM.
UCUCUUUGUAUCUCUCUCUU (ssRNA) [Ic_S1_P3E.1_K3.1_C3.1_H3.1_A3.1_[A6C]_F3.1_[A8C]_T3.1] showed a Kd of 0.0974 µM.
UCUCUUUGUAUUUCCAUCUCUU (ssRNA) [Ic_S1_P5E.1_K5.1_C5.1_H5.1_A5.1_[A7T]_F5.1_[T8C]_[T9C]_T5.1] gave a Kd of 0.363 µM.
In the case of UCUCUUUGUAAACUGGUCUCUU (ssRNA) [Ic_S1_P5E.1_K5.1_C5.1_H5.1_A5.1_[T5A]_[T6A]_[A7C]_F5.1_[T9G]_[A10G]_T5.1], the Kd is reported as 0.0169 µM.
In the case of UCUCUUUGUAGCAACCUCUCUU (ssRNA) [Ic_S1_P5E.1_K5.1_C5.1_H5.1_A5.1_[T5G]_[T6C]_F5.1_[T8A]_[T9C]_[A10C]_T5.1], the Kd is reported as 1.85 µM.
With UCUCUUUGUACGUCACUCUCUU (ssRNA) [Ic_S1_P5E.1_K5.1_C5.1_H5.1_A5.1_[T5C]_[T6G]_[A7T]_F5.1_[T8C]_[T9A]_[A10C]_T5.1] the Kd was 0.58 µM.
UCUCUUUGUAAAUCCGUCUCUU (ssRNA) [Ic_S1_P5E.1_K5.1_C5.1_H5.1_A5.1_[T5A]_[T6A]_[A7T]_F5.1_[T8C]_[T9C]_[A10G]_T5.1] gave a Kd of 0.747 µM.
In the case of UCUCUUUGUAAACGCUUCUCUU (ssRNA) [Ic_S1_P5E.1_K5.1_C5.1_H5.1_A5.1_[T5A]_[T6A]_[A7C]_F5.1_[T8G]_[T9C]_[A10T]_T5.1], the Kd is reported as 0.854 µM.
In the case of UCUCUUUGUAGCACUGUCUCUU (ssRNA) [Ic_S1_P5E.1_K5.1_C5.1_H5.1_A5.1_[T5G]_[T6C]_F5.1_[T8C]_[A10G]_T5.1], the Kd is reported as > 2.3 µM.
In the case of UCUCUUUGUACAUGUAUCUCUU (ssRNA) [Ic_S1_P5E.1_K5.1_C5.1_H5.1_A5.1_[T5C]_[T6A]_[A7T]_F5.1_[T8G]_T5.1], the Kd is reported as 0.00891 µM.
UCUCUUUGUAUUCGAUUCUCUU (ssRNA) [Ic_S1_P5E.1_K5.1_C5.1_H5.1_A5.1_[A7C]_F5.1_[T8G]_[T9A]_[A10T]_T5.1] was tested, and the Kd was 0.466 µM.
With UCUCUUUGUACGUUGUUCUCUU (ssRNA) [Ic_S1_P5E.1_K5.1_C5.1_H5.1_A5.1_[T5C]_[T6G]_[A7T]_F5.1_[T9G]_[A10T]_T5.1] the Kd was 0.0348 µM.
With UCUCUUUGUAAAAACCUCUCUU (ssRNA) [Ic_S1_P5E.1_K5.1_C5.1_H5.1_A5.1_[T5A]_[T6A]_F5.1_[T8A]_[T9C]_[A10C]_T5.1] the Kd was 1.14 µM.
Binder UCUCUUUGUAUCUCGCUCUCUU (ssRNA) [Ic_S1_P5E.1_K5.1_C5.1_H5.1_A5.1_[T6C]_[A7T]_F5.1_[T8C]_[T9G]_[A10C]_T5.1] has a Kd of 0.16 µM.
UCUCUUUGUAUUUGUCUCUU (ssRNA) [Ic_S1_P3E.1_K3.1_C3.1_H3.1_A3.1_[A6T]_F3.1_[A8G]_T3.1] was tested, and the Kd was 0.106 µM.
UCUCUUUGUAAAUUCUUCUCUU (ssRNA) [Ic_S1_P5E.1_K5.1_C5.1_H5.1_A5.1_[T5A]_[T6A]_[A7T]_F5.1_[T9C]_[A10T]_T5.1] showed a Kd of 0.0201 µM.
With UCUCUUUGUACGUCUUUCUCUU (ssRNA) [Ic_S1_P5E.1_K5.1_C5.1_H5.1_A5.1_[T5C]_[T6G]_[A7T]_F5.1_[T8C]_[A10T]_T5.1] the Kd was 0.425 µM.
UCUCUUUGUACCUUUAUCUCUU (ssRNA) [Ic_S1_P5E.1_K5.1_C5.1_H5.1_A5.1_[T5C]_[T6C]_[A7T]_F5.1_T5.1] was tested, and the Kd was 0.00683 µM.
UCUCUUUGUAAACACUUCUCUU (ssRNA) [Ic_S1_P5E.1_K5.1_C5.1_H5.1_A5.1_[T5A]_[T6A]_[A7C]_F5.1_[T8A]_[T9C]_[A10T]_T5.1] gave a Kd of 0.666 µM.
Work on UCUCUUUGUAUAUGACUCUCUU (ssRNA) [Ic_S1_P5E.1_K5.1_C5.1_H5.1_A5.1_[T6A]_[A7T]_F5.1_[T8G]_[T9A]_[A10C]_T5.1] yielded a Kd of 0.0161 µM.
In the case of UCUCUUUGUAACCCCAUCUCUU (ssRNA) [Ic_S1_P5E.1_K5.1_C5.1_H5.1_A5.1_[T5A]_[T6C]_[A7C]_F5.1_[T8C]_[T9C]_T5.1], the Kd is reported as 1.28 µM.
Work on UCUCUUUGUACGUGCCUCUCUU (ssRNA) [Ic_S1_P5E.1_K5.1_C5.1_H5.1_A5.1_[T5C]_[T6G]_[A7T]_F5.1_[T8G]_[T9C]_[A10C]_T5.1] yielded a Kd of 0.583 µM.
In the case of UCUCUUUGUAUAACCGUCUCUU (ssRNA) [Ic_S1_P5E.1_K5.1_C5.1_H5.1_A5.1_[T6A]_F5.1_[T8C]_[T9C]_[A10G]_T5.1], the Kd is reported as 0.152 µM.
UCUCUUUGUAACUAGUUCUCUU (ssRNA) [Ic_S1_P5E.1_K5.1_C5.1_H5.1_A5.1_[T5A]_[T6C]_[A7T]_F5.1_[T8A]_[T9G]_[A10T]_T5.1] gave a Kd of 0.642 µM.
UCUCUUUGUAAACCUCUCUCUU (ssRNA) [Ic_S1_P5E.1_K5.1_C5.1_H5.1_A5.1_[T5A]_[T6A]_[A7C]_F5.1_[T8C]_[A10C]_T5.1] showed a Kd of 0.548 µM.
Work on UCUCUUUGUAUCUGUCUCUU (ssRNA) [Ib_S1_P3E.1_K3.1_C3.1_H3.1_A3.1_[A6C]_F3.1_[A8G]_T3.1] yielded a Kd of 0.0818 µM.
